# From US20150352207A1, “USE OF ANTIBODIES AGAINST ICAM-1 IN COMBINATION WITH AN ANTI CANCER DRUG IN THE TREATMENT OF PATIENTS” (BIOINVENT INTERNATIONAL AB, priority 2013, published 2015)
# Entries after “also recorded” stand apart in the source; their conditions may differ. Read-outs that look alike come from different tables or passages of the source.
# How the values were obtained:
# [1] = tested on: ARH-77 cells; test: Disseminated scid/ARH-77 model of multiple myeloma; format: in vivo, scid mice; conditions: i.v. on Days 7, 10, 13, 16; antibody 2 mg/kg, bortezomib 0.5 mg/kg; vs control treatment
# Method: (§1) ARH-77 cells or RPMI-8226 were injected intravenously into the SCID mice. (A) ARH-77 model. Animals received intravenous injections with antibody at 2 mg/kg or bortezomib (Velcade) at 0.5 mg/kg on Days 7, 10, 13, and 16 (as indicated by arrows in the graph). (B) RPMI-8226-model. B11 or control mAb was administered i.v at 2 mg/kg, twice weekly for 8 weeks, bortezomid, at 1 mg/kg, once weekly for 8 weeks, lenalidomide p.o with 2 mg/kg for 2 cycles consisting of 5 days of treatment and 2 days of wash out, melphalan i.v at 3 mg/kg, once weekly for 8 weeks, and dexamethasone (DXH) at 6 mg/kg/inj 3 times/week for 2 consecutive weeks. There were 6-10 mice per treatment group. Statistical significance was calculated using Log-rank Graphpad Prism software and determined at ***p<0.001. (C) To study the ICAM-1 level on human cells, the cells from different organs were stained and gated for CD38+/mCD45−/B11+. Left panel indicates the percentage of B11 positive cells in CD38+/mCD45 population and right panel the mean fluorescent intensity of the positive cells.
# (§2) The anti-myeloma effect of B11 was examined in a disseminated model of multiple myeloma. The early and advanced disseminated model of multiple myeloma was performed at Oncodesign, Dijon, France. Briefly: 1×10^6 (early) or 5×10^6 (advanced) ARH-77 tumor cells in 200 μL of RPMI 1640 were injected intravenously (i.v) into the caudal vein of female scid mice (D0). Tumor cell injections were performed twenty four to forty eight hours after a whole body irradiation of mice (1.8 Gy, ^60Co, INRA, BRETENNIERES). The treatment was started at D5 RPMI-8226 model or D7 (ARH-77 model) […]. B11 or control mAb was administered i.v. at 2 mg/kg, twice weekly for 8 weeks, bortezomib, at 1 mg/kg, once weekly for 8 weeks, lenalidomide p.o with 2 mg/kg for 2 cycles consisting of 5 days of treatment and 2 days of wash out, melphalan i.v. at 3 mg/kg, once weekly for 8 weeks, and dexamethasone at 6 mg/kg 1 injected 3 times a week for 2 consecutive weeks.
# The disseminated model of scid/ARH-77 is a well-established experimental model that resembles human multiple myeloma disease progression and disease manifestation in many respects (33). We utilized this model to further characterize IgG B11 anti-myeloma activity (FIG. 6A). Intravenous injection of irradiated scid mice with 1×10^6 ARH-77 cells was previously shown to result in their dissemination and establishment in mouse bone-marrow, and resulting osteolytic bone-lesions and hypercalcemia, and ultimately, in animal paralysis or difficulty of breathing at which time animals were immediately sacrificed. […]
# [2] = tested on: RPMI-8226 myeloma cells; test: Advanced disseminated RPMI-8226 multiple myeloma model; format: in vivo, SCID mice; conditions: for survival: B11 2 mg/kg i.v. twice weekly for 8 weeks
# Method: as §1, §2
# 200 μl containing 10×10^6 of RPMI 8226 tumour cells was intravenously injected into the caudal vein of female SCID mice. The mice had been subjected to a whole body irradiation of mice (1.8 Gy, ^60Co, BioMEP) 24 to 72 hours prior to cell injection. At D1, tumor injected mice were randomized according to their individual body weight. All treatment started day 5 after tumor cell administration except for ALKERAN®, which started at day 10. All treatments were injected in a dose volume of 10 ml/kg/inj. Mice received one of the following treatments:
# Monoclonal anti-ICAM mAb or control mAb was administered i.v in a PBS solution containing at 2 mg/kg, 2 times/week for 8 consecutive weeks. […]
# [3] = tested on: peripheral blood B cells; test: PCD in normal peripheral blood B cells; format: cell-based; conditions: resting or activated peripheral blood B cells
# Method: Target cells were seeded in 96-well culture plates at a density of 2×10^6 cells/mL culture medium. Titrated concentrations of IgG1 B11 or different negative and positive control antibodies were added to the cells, in the absence or presence of anti-human Fab fragment (Jackson ImmunoResearch) for cross-linking. The cells were then incubated for 16 hours at 37° C. in a humidified atmosphere of 5% CO2. The cells were harvested and stained for Annexin V-488/Propidium Iodide (Invitrogen, Sweden) and analysed using flow cytometer (FACS Calibur, BD Bioscience).
# [4] = tested on: PBMC; test: PBMC cytokine release; format: cell-based
# Text: (§3) We next assessed IgG B11 effects on PBMC cytokine release and cell proliferation. In order to maximize chances of identifying any PBMC agonistic properties of IgG B11, we used two different antibody coating-protocols where antibody is hyper-cross-linked as previously described (62).
# [5] = tested on: PBMC; test: PBMC / T cell proliferation; format: cell-based; conditions: immobilised antibody or in solution
# Text: as §3
# [6] = biological target: recombinant human ICAM-1 (Homo sapiens, UniProt P05362); test: ELISA binding to recombinant human ICAM-1, ICAM-2 or ICAM-3; conditions: versus ICAM-2, ICAM-3
# [7] = tested on: ARH-77 xenograft tissues; conditions: compared to control IgG, untreated and rituximab-treated mice
# Method: (A) ARH-77 cells were injected subcutaneously into the left flank of SCID mice (n=8 per group). Mice were treated with the different B11 isotypes twice weekly. […] Statistical significance was calculated relative to control antibody treatment using Kruskal-Wallis Test (Nonparametric ANOVA) with Dunn's Multiple Comparisons Test. Statistical significance was considered for *p<0.05, **p<0.01, and ***p<0.001.
# Sequence of recombinant human ICAM-1 (P05362 28-532): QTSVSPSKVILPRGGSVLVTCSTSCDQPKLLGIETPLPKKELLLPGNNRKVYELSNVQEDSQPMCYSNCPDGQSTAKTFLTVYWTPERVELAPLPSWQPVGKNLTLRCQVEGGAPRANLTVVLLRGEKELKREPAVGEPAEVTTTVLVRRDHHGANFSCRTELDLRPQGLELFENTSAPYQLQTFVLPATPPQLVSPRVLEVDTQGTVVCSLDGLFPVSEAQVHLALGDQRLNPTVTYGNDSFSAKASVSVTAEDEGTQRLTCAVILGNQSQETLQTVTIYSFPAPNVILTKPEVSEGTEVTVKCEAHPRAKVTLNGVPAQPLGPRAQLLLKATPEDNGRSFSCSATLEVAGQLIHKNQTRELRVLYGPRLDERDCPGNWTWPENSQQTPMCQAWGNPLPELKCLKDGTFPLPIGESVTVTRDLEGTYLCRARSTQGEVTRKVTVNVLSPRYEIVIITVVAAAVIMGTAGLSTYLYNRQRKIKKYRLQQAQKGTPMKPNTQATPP
molecule,measurement,setting,value
"IgG B11: novel human ICAM-1 antibody targeting the B11 epitope, isolated from the naïve antibody library n-CoDeR (antibody, V domains shown, B11 antibody variable H region; B11 antibody variable L region) VH: EVQLLESGGGLVQPGGSLRLSCAASGFTFSNAWMSWVRQAPGKGLEWVAFIWYDGSNKYYADSVKGRFTISRDNSKNTLYLQMNSLRAEDTAVYYCARYSGWYFDYWGQGTLVTVSS VL: QSVLTQPPSASGTPGQRVTISCTGSSSNIGAGYDVHWYQQLPGTAPKLLIYDNNNRPSGVPDRFSGSKSGTSASLAISGLRSEDEADYYCQSYDSSLSAWLFGGGTKLTVLG",animal survival,[1],increased mean survival time
same,time to symptomatic disease onset,[1],doubled the time to symptomatic disease onset
same,survival,[2],significantly enhanced survival; also recorded: trend towards improved survival in IgG B11 treated mice compared to mice treated with the immunomodulatory drug revlimid
same,survival,"[2]; listed as B11, 2 mg/kg",significantly enhances survival; also recorded: highly improved survival
same,survival,[2]; listed as anti ICAM-1 mAb,more effective compared to other SOC single therapies
same,disease onset,"[2]; B11 2 mg/kg i.v. twice weekly, compared to bortesomib and dexamethasone",delayed disease onset
same,programmed cell death of normal B cells,[3],"did not, however, induce PCD"
same,programmed cell death of normal B cells,[3]; listed as B11,not significantly affected
same,PBMC cytokine release,"[4]; antibody in solution, resting or lipopolysaccharide pre-stimulated PBMCs",did not induce or enhance cytokine release
same,PBMC cytokine release,"[4]; immobilised antibody, or in solution with or without cross-linking reagent","did not, however, induce PBMC cytokine release"
same,PBMC cytokine release,"[4]; immobilised antibody, or in solution with or without cross-linking reagent, listed as B11",not significantly affected
same,cell proliferation,[5],did not induce cell proliferation
same,cell proliferation,[5]; listed as B11,not significantly affected
same,specificity for ICAM-1,[6],high specificity
same,F4/80 positive host effector cell (macrophage) infiltration of tumor tissue,[7],massive influx
same,F4/80 positive host effector cell (macrophage) infiltration of tumor tissue,[7]; listed as B11,significantly increased
